In test [1] the target is T1, recombinant human TNFα (human, UniProt P01375 77-233).
T1 construct: also called huTNFα; tumor necrosis factor alpha
Briefly: competition: mAb in hybridoma supernatant preincubated with 125I-TNFα (5 ng/ml), then 125I-TNFα bound to plate-coated p55-sf2 counted as cpm. Here is the method:
Although eight TNV mAb samples were tested in these experiments, for simplicity three of the mAbs that were shown by DNA sequence analyses to be identical to one of the other TNV mAbs (see Section 5.2.2) are not shown here. Each sample was tested in duplicate. The results shown are representative of two independent experiments.
(§1) Assay for Inhibition of TNF Binding to Receptor. […] 50:1 of p55-sf2 at 0.5: g/ml in PBS was added to Optiplates to coat the wells during a one-hour incubation at 37° C. Serial dilutions of the eight TNV cell supernatants were prepared in 96-well round-bottom plates using PBS/0.1% BSA as diluent. […] The mixture was preincubated for one hour at RT. […] After 2 hrs at RT, Optiplates were washed three times with PBS-Tween. […] of Microscint-20 was added and the cpm bound determined using the TopCount gamma counter.

For test [2], the target named is T1, recombinant human TNFα. In words: inhibition of 125I-TNFα binding to plate-coated p55-sf2 by hybridoma supernatant. Here is the method:
as §1

Test [3] concerns the target T1, recombinant human TNFα. In words: cell-based or functional assay.

B1: TNV148 (antibody, human IgG1, kappa, V domains shown)
VH: QVQLVESGGGVVQPGRSLRLSCAASGFIFSSYAMHWVRQAPGNGLEWVAFMSYDGSNKKYADSVKGRFTISRDNPKNTLYLQMNSLRAEDTAVYYCARDRGIAAGGNYYYYGMDVWGQGTTVTVSS
VL: EIVLTQSPATLSLSPGERATLSCRASQSVYSYLAWYQQKPGQAPRLLIYDASNRATGIPARFSGSGSGTDFTLTISSLEPEDFAVYYCQQRSNWPPFTFGPGTKVDIKR
notes: Hybridoma-derived fully human IgG1 kappa; also called GenTNV148.26.12; C420A
With B1, the “IC50 (read off the curve)” value with recombinant human TNFα [1] is roughly 4 ng/mL. The “fold better at blocking TNF binding, against TNV118 and TNV14” value in the test with recombinant human TNFα [2] is roughly 4 fold. Besides, the “neutralizing TNFα bioactivity” value with recombinant human TNFα [3] was 4 fold (against TNV14).

B2: TNV86 (antibody, human IgG1, kappa, V domains shown)
VH: B1 VH
VL: B1 VL
notes: also called GenTNV86.14.34; C417A
Turning to B2, the “fold better at blocking TNF binding, against TNV118 and TNV14” value with recombinant human TNFα [2] is roughly 4 fold.

The values above are taken from patent US20250019429A1 (Janssen / Centocor, published 2025).
